Assay results: patent US20200115460A1 (TEIJIN PHARMA, published 2020)

How the values were obtained:
hINSR[L2]/hIGFIR = target: T1, hINSR[L2]/hIGFIR (human); test: Cell ELISA, 10 nM antibody, fixed P3U1 cells expressing the chimera
T1 construct: Chimeric receptor on transfected P3U1 cells
Method: (§1) The gene of hIGFIR[L1-L2]/hINSR as Substitution 1 is shown in SEQ ID NO: 23; the gene of hINSR[L1-L2]/hIGFIR as Substitution 2 is shown in SEQ ID NO: 24; the gene of hINSR[L1]/hIGFIR as Substitution 3 is shown in SEQ ID NO: 25; and the gene of hINSR[L2]/hIGFIR as Substitution 4 is shown in SEQ ID NO: 26. After the lipofection, the P3U1 cells were cultured at least overnight and were added to a 96-well plate (coated with poly-D-lysine) at a concentration of 0.8×10⁵ cells/well and immobilized with 10% buffered formalin (Mildform® 10 NM, Wako), followed by blocking with phosphate buffer containing 3% BSA. The plate was used in ELISA.
(§2) In ELISA, 30 μL of an antibody solution adjusted to 10 nM with 0.1% skimmed milk/3% BSA/PBS was added to each well and was subjected to reaction at room temperature for about 1.5 hours. After washing with a washing liquid twice, 30 μL of an anti-mouse-IgG antibody-HRP conjugate solution adjusted to 5 nM with 0.1% skimmed milk/3% BSA/PBS was added to each well and was subjected to reaction at room temperature for about 1 hour. After washing with a washing liquid twice, 50 μL of a substrate (TMB) was added to each well to start the reaction. After about 20 minutes, 50 μL of 0.5 M sulfuric acid was added to each well to stop the reaction. The absorbances at 450 nm and 550 nm were measured, and the difference between absorbance values at 450 nm and 550 nm was calculated. The avidity was calculated based on the difference between absorbance values at 450 nm and 550 nm for cells (Mock cells, SEQ ID NO: 22) transfected with a vector not containing the gene of each substitution as a standard value 1 (Table 3).

hIGFIR[L1-L2]/hINSR = target: T2, hIGFIR[L1-L2]/hINSR (human); test: as above
T2 construct: Chimeric receptor on transfected P3U1 cells
Method: as §1, §2

hINSR[L1]/hIGFIR = target: T3, hINSR[L1]/hIGFIR (human); test: as above
T3 construct: Chimeric receptor on transfected P3U1 cells
Method: as §1, §2

hINSR[L1-L2]/hIGFIR = target: T4, hINSR[L1-L2]/hIGFIR (human); test: as above
T4 construct: Chimeric receptor on transfected P3U1 cells
Method: as §1, §2

human insulin receptor = target: T5, human insulin receptor (human, UniProt P06213 28-1382); test: Cell ELISA on HEK 293T cells expressing human insulin receptor
T5 construct: whole, on cells; Expressed on transfected HEK 293T cells; also called INSR; hINSR
Method: The HEK 293T cells after the lipofection were added to a 96-well plate (coated with poly-D-lysine) at a concentration of 0.8×10⁵ cells/well (about 180 μL/well) and were immobilized with 10% buffered formalin (Mildform® 10 NM, Wako), followed by blocking with phosphate buffer containing 3% BSA. The plate was used in ELISA.
In ELISA, antibody solutions (30 μL) adjusted to predetermined concentrations with 0.1% skimmed milk/3% BSA/PBS were added to respective wells and were subjected to reaction at room temperature for about 1 hour. After washing with a washing liquid (tris buffer containing Tween) twice, anti-mouse-IgG antibody-ALP conjugate solutions (30 μL) adjusted to predetermined concentrations with 0.1% skimmed milk/3% BSA/PBS were added to respective wells and were subjected to reaction at room temperature for about 1 hour. After washing with a washing liquid twice, 100 μL of a substrate (PNPP) was added to each well to start the reaction.

[1] = target: T6, recombinant human IGF-I receptor His tag (305-GR-050, R&D SYSTEMS) (human, UniProt P08069 31-932, limits assumed); test: SPR, Biacore T200, 36 °C, IGF-IR-His captured by anti-His antibody, 1:1 model
T6 construct: Bought protein, captured on an anti-His antibody chip; also called IGF-IR-His; not shown: His tag
Method: An anti-His monoclonal antibody was immobilized to a sensor chip CM3 (GE) with an Amine Coupling Kit (BR-1000-50, GE) and a His Capture Kit (28-9950-56, GE). The immobilization conditions were NHS/EDC: 7 minutes, 50 μg/mL anti-His monoclonal antibody: 3 minutes, ethanolamine: 7 minutes, and target: ≥3000 RU. As analytes, the agent was used at predetermined concentrations.
The sensor chip CM3 immobilized with the anti-His monoclonal antibody was set to Biacore T200, the reaction temperature was set to 36° C., and a running buffer (HBS-EP+, BR-1006-69, GE) was fed at a flow rate 30 μL/min. The amount of the binding ligand was set to about 100 RU, and IGF-IR-His (0.5 to 2×10⁻⁸ mol/L) was added to the sensor chip to be captured by the anti-His monoclonal antibody. Ctrl IgG2a (10 nmol/L) was allowed to react for 1 minute, and HBS-EP+ was fed at a flow rate of 30 μL/min for at least 10 minutes. The analyte and HBS-EP+ were added to flow cells (1 and 2) and flow cells (3 and 4), respectively.
The reaction conditions were set to a binding time of 600 seconds and a dissociation time of 600 seconds. After completion of the reaction, washing was performed with regeneration buffer 1 (0.2% SDS), regeneration buffer 2 (100 mmol/L Tris-HCl (pH 8.5), 1 mol/L NaCl, 15 mmol/L MgCl₂), and regeneration buffer 3 (10 mmol/L glycine-HCl (pH 1.5)) for 1 minute each at a flow rate of 30 μL/min.

Avidity (absorbance difference 450-550 nm, Mock cells = 1) (hINSR[L2]/hIGFIR): 5.6 fold of Mock cells
Avidity (absorbance difference 450-550 nm, Mock cells = 1) (hIGFIR[L1-L2]/hINSR): 5.5 fold of Mock cells
Avidity (absorbance difference 450-550 nm, Mock cells = 1) (hINSR[L1]/hIGFIR): 5.7 fold of Mock cells
Avidity (absorbance difference 450-550 nm, Mock cells = 1) (hINSR[L1-L2]/hIGFIR): 1.5 fold of Mock cells
Kd [1]: < 10 pM
koff [1]: < 1e-05 s⁻¹
kon [1]: 1.05e+06 M⁻¹ s⁻¹
B1: IGF11-16 (antibody, mouse IgG1, kappa, V domains shown)
VH: QIQLQQPGAELVKPGASVKLSCKAPGYTFTSYWMHWVKQRPGQGLEWIGETNPSNSVTNYNEKFKSKATLTVDKSSSTAYMQLSSLTSEDSAVYYCTIGRGRGFAYWGQGTLVTVSA
VL: DIQMNQSPSSLSASLGDTITITCRASQNINFWLSWCQQKPGNIPKLLIYKASNLHTGVPSRFSGSGSGTDFTLTISSLQPEDIATYYCLQGQSYPYTFGGGTKLEIKR
notes: no cleavage site is stated; also called IGF-I receptor agonist antibody; IGF11-16 antibody
binding result (human insulin receptor): no binding (tested: 0.5 nM and 5 nM; 1.5-fold of Mock cells)
